This is an account of results in article PMC314469, “Protein Interaction Networks by Proteome Peptide Scanning” (PLoS Biology, 2004).

Common to all, as to test: SPOT array
The target of experiment [1] is T1, Boi1 SH3 (BOI1_YEAST), P38041.
T1 chain: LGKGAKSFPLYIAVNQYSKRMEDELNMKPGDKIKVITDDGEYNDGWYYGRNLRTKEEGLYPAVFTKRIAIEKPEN

Experiment [2] has as its target T2, Boi2 SH3 (BOI2_YEAST), P39969.
T2 chain: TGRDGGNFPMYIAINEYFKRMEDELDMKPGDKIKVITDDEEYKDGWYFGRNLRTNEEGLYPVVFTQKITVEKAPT

Experiment [3] deals with T3, Myo5 SH3 (MYO5_YEAST), Q04439.
T3 chain: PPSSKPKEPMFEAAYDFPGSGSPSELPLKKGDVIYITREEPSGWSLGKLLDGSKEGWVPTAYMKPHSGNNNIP

The target in experiment [4] is T4, Rvs167 SH3 (RV167_YEAST), P39743.
T4 chain: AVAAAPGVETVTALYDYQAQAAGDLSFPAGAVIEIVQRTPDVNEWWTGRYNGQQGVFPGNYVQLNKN

For experiment [5], the target named is Sho1 SH3 (SHO1_YEAST), P40073.
Experiment [6] has as its target T5, Yfr024 SH3 (LSB3_YEAST), P43603.
T5 chain: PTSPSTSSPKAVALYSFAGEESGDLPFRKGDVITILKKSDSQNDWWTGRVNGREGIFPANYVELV

Experiment [7] concerns the target T6, Yhr016c SH3 (YSC84_YEAST), P32793.
T6 chain: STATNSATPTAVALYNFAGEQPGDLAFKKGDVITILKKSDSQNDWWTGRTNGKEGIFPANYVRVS

Chain of Sho1 SH3 (SHO1_YEAST), P40073 (P40073 295-366): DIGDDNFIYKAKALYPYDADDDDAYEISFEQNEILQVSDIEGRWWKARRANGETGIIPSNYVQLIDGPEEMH

Take GLNLKWEPSTPQRN [YCR102C 154-167]: the normalised SPOT signal, Boehringer light units (BLU); mean over the file's lines of this peptide in experiment [1] is 447; in experiment [2] it was 4.6; in experiment [3], 105; in experiment [4] it was 10.9; in experiment [5], 62.8; in experiment [6], 1020. Moreover, the normalised SPOT signal, Boehringer light units (BLU); mean over the file's lines of this peptide in experiment [7] is 152.

Consider GFQDRSLPHFPKNS [YOR116C 826-839], for which the normalised SPOT signal, Boehringer light units (BLU); mean over the file's lines of this peptide came to 88.7 in experiment [1]; 18.7 in experiment [2]; 178 in experiment [3]; 240 in experiment [4]; 5160 in experiment [5]; 180 in experiment [6]. In experiment [7], the normalised SPOT signal, Boehringer light units (BLU); mean over the file's lines of this peptide came to 49.7.

On to GKMVKWGPLRPFLS [YOL072W 279-292], for which the normalised SPOT signal, Boehringer light units (BLU); mean over the file's lines of this peptide was determined as 64.2 in experiment [1]; 153 in experiment [2]; 645 in experiment [3]; 1050 in experiment [4]; 148 in experiment [5]; 1990 in experiment [6]. This molecule also registered a normalised SPOT signal, Boehringer light units (BLU); mean over the file's lines of this peptide in experiment [7] of 984.

For GIMIKAKPSSPYTY [YLR260W 30-43], the normalised SPOT signal, Boehringer light units (BLU); mean over the file's lines of this peptide turned out to be 69.6 in experiment [1]; 53.5 in experiment [2]; 236 in experiment [3]; 248 in experiment [4]; 62.2 in experiment [5]; 662 in experiment [6]. In experiment [7], this molecule yielded a normalised SPOT signal, Boehringer light units (BLU); mean over the file's lines of this peptide of 197.

GFLSKKVPNTPVVV [YNL094W 196-209]: the normalised SPOT signal, Boehringer light units (BLU); mean over the file's lines of this peptide was 426 in experiment [1]; 5.3 in experiment [2]; 71.3 in experiment [3]; 100 in experiment [4]; 47.5 in experiment [5]; 81.6 in experiment [6]. Further, the normalised SPOT signal, Boehringer light units (BLU); mean over the file's lines of this peptide in experiment [7] was 24.7.

Consider GIKVKRIPYSPKSI [YMR309C 639-652], for which the normalised SPOT signal, Boehringer light units (BLU); mean over the file's lines of this peptide amounted to 136 in experiment [1]; 1.5 in experiment [2]; 391 in experiment [3]; 57.5 in experiment [4]; 15.1 in experiment [5]; 178 in experiment [6]. Besides, in experiment [7], the normalised SPOT signal, Boehringer light units (BLU); mean over the file's lines of this peptide amounted to 15.9.

For the molecule GNNSRNIPPPPPPP [YMR089C 148-161], the normalised SPOT signal, Boehringer light units (BLU); mean over the file's lines of this peptide stood at 61.5 in experiment [1]; 14.2 in experiment [2]; 10300 in experiment [3]; 49.6 in experiment [4]; 28.3 in experiment [5]; 62 in experiment [6]. The molecule also had a normalised SPOT signal, Boehringer light units (BLU); mean over the file's lines of this peptide in experiment [7] of 15.8.

For GLVLRSTPVIPDMK [YPR019W 330-343], the normalised SPOT signal, Boehringer light units (BLU); mean over the file's lines of this peptide in experiment [1] turned out to be 116; in experiment [2], 126; in experiment [3], 209; in experiment [4] it was 5260; in experiment [5], 60.9; in experiment [6] it was 2380. Also, the normalised SPOT signal, Boehringer light units (BLU); mean over the file's lines of this peptide in experiment [7] turned out to be 302.

Turning to GEMVKLTPKNPFYK [YBR214W 193-206], the normalised SPOT signal, Boehringer light units (BLU); mean over the file's lines of this peptide in experiment [1] turned out to be 152; in experiment [2] it was 23.6; in experiment [3] it was 408; in experiment [4], 73.6; in experiment [5], 60.2; in experiment [6], 208. For the same molecule, in experiment [7], the normalised SPOT signal, Boehringer light units (BLU); mean over the file's lines of this peptide worked out at 44.4.

GLDLKWEPSTPQRK [YLR460C 162-175]: the normalised SPOT signal, Boehringer light units (BLU); mean over the file's lines of this peptide came out at 2030 in experiment [1]; 6.1 in experiment [2]; 164 in experiment [3]; 73 in experiment [4]; 62.6 in experiment [5]; 1010 in experiment [6]. The normalised SPOT signal, Boehringer light units (BLU); mean over the file's lines of this peptide in experiment [7] stood at 342.

For GENIKITPQKPFWF [YJR122W 473-486], the normalised SPOT signal, Boehringer light units (BLU); mean over the file's lines of this peptide was found to be 82.4 in experiment [1]; 35.5 in experiment [2]; 115 in experiment [3]; 74.1 in experiment [4]; 46 in experiment [5]; 29.7 in experiment [6]. The molecule further registered a normalised SPOT signal, Boehringer light units (BLU); mean over the file's lines of this peptide in experiment [7] of 33.

Turning to GHKKKNLPKFPKNK [YDL051W 238-251], the normalised SPOT signal, Boehringer light units (BLU); mean over the file's lines of this peptide came to 517 in experiment [1]; 23.1 in experiment [2]; 789 in experiment [3]; 31.7 in experiment [4]; 4690 in experiment [5]; 594 in experiment [6]. The normalised SPOT signal, Boehringer light units (BLU); mean over the file's lines of this peptide in experiment [7] turned out to be 47.5.

On to GLMSKLGPNLPASI [YLR092W 403-416], for which the normalised SPOT signal, Boehringer light units (BLU); mean over the file's lines of this peptide was determined as 118 in experiment [1]; 40 in experiment [2]; 287 in experiment [3]; 275 in experiment [4]; 63.1 in experiment [5]; 606 in experiment [6]. The molecule also displayed a normalised SPOT signal, Boehringer light units (BLU); mean over the file's lines of this peptide in experiment [7] of 41.6.

For the molecule GKDHRLAPNGPGMH [YDR333C 253-266], the normalised SPOT signal, Boehringer light units (BLU); mean over the file's lines of this peptide in experiment [1] is 2160; in experiment [2], 4.7; in experiment [3], 218; in experiment [4], 3.1; in experiment [5] it was 36.4; in experiment [6] it was 29.4. In addition, the normalised SPOT signal, Boehringer light units (BLU); mean over the file's lines of this peptide in experiment [7] turned out to be 24.5.
